In patent publication US9657088B2, “Anti-HSV antibody” (priority 2009, dated 2017):

B1: h2c-V1: humanized mAb 2c variant, CDR grafting onto DP28/DPK13, no backmutations (antibody, V domains shown)
VH: QVTLKESGPALVKPTQTLTLTCTFSGFSLSTSGMSVGWIRQPPGKALEWLAHIWWNNDKYYKPALKSRLTISKDTSKNQVVLTMTNMDPVDTATYYCARIYYGYRPYAMDYWGQGTLVTVSS
VL: DIVMTQTPLSLPVTPGEPASISCRSSQSIVHSNGNTYLEWYLQKPGQSPQLLIYKVSNRFSGVPDRFSGSGSGTDFTLKISRVEAEDVGVYYCFQGSHVPWSFGQGTKVEIKR

Columns and labels:
[1] = system: patient derived HSV-1 isolate resistant towards Acyclovir, Foscarnet and Cidovovir; assay: Treatment of NOD/SCID mice infected with multi-resistant patient HSV-1 isolate; type: in vivo; conditions: for protection against lethal encephalitis: 15 mg/kg i.v. at 24 h, 40 h and 56 h post infection
Description: Mice receiving twice daily standard treatment with Acyclovir all died within 28 days.
Furthermore, the humanized mAb 2c-V1 also confers protection from viral dissemination and lethal encephalitis in the presence of an established peripheral HSV infection. […] In contrast, mice receiving Acyclovir all died (FIG. 12).

human DNA polymerase = conditions: background statement; cited from earlier work
[2] = target: T1, glycoprotein B on surface of HSV-1 F infected Vero cells (Human herpesvirus 1, UniProt P06436); assay: Affinity constants (KD) by flow cytometry on HSV-1 F infected Vero cells; type: binding
T1 construct: expressing the gB-protein as membrane associated glycoprotein on the cell surface during the natural HSV replication cycle; endogenous in cells; host or cells: Vero cells infected with HSV-1 F (MOI 3); gB is made by the virus in the infected cell

[3] = system: HSV-1 laboratory strains and clinical isolates; assay: Neutralization of HSV-1 laboratory strains and clinical isolates (FIG. 8); type: cell-based
Experimental: (§1) To determine the titer of mAb h2c-V1 for complete virus neutralization several antibody concentrations were incubated for 1 h at 37° C. with 100 TCID50 of HSV-1 or HSV-2 isolates and incubated for 3 days with Vero cells. MAb hu2c-V1 neutralizes HSV-1 laboratory strains HSV-1 F, HSV-1 324 hv, HSV-1 17 syn^+, HSV-1 TK^− completely at concentrations of 7.8-15.6 nM. HSV-1 clinical isolates are neutralized by mAb h2c-V1 similarly irrespective of their resistance profile. Furthermore, the same neutralization efficiency of mAb hu2c-V1 was shown for strain HSV-2 G and ACV-resistant HSV-2 isolates at concentrations of 31.3-62.5 nM.

[4] = system: HSV-2 G and ACV-resistant HSV-2 isolates; assay: Neutralization of HSV-2 strain and isolates (FIG. 8); type: cell-based; conditions: 100 TCID50, 3 days
Experimental: as §1

[5] = target: T2, gB present on the surface of HSV-1 infected Vero cells (Human herpesvirus 1, UniProt P06436); assay: Competition study with mAb 2c by flow cytometry; type: binding; conditions: increasing concentrations, then 100 nM mAb 2c
T2 construct: endogenous in cells; host or cells: Vero cells infected with HSV-1 (3 moi, 20 h)

HSV-1 = assay: Plaque-reduction assay with or without human complement; type: cell-based; conditions: 2 μg/ml, with or without 10% human complement
HSV-1 F [6] = assay: Cell-to-cell spread assay in Vero cell monolayers; type: cell-based; conditions: 500 nM, 48 h
Experimental: Vero cells grown to confluency on glass cover slips in 24-weel tissue culture plates are infected for 4 h at 37° C. with a constant virus amount of 400 TCID50/well. One median tissue culture infective dose (1 TCID50) is the amount of a cytopathogenic agent, such as a virus, that will produce a cytopathic effect in 50% of the cell cultures inoculated. The virus inoculum is subsequently removed, the cells washed twice with PBS and further incubated for 2 days at 37° C. in 1 ml DMEM, 2% FCS, Pen/Strep containing an excess of either different anti-HSV antibodies or polyclonal anti-HSV control serum in order to prevent viral spreading via the supernatant Viral antigens of HSV-infected cells are detected with a fluorescence labelled polyclonal goat-anti-HSV-serum (BETHYL Labolatories, Montgomery, Tex. USA, Catalog No. A190-136F, Lot No. A190-136F-2).
Two days after infection spreading of the virus was detected with fluorescence labeled polyclonal goat-anti-HSV serum using a Leica DM IRE2 confocal microscope at 40-fold magnification.
For spreading within a host HSV uses two mechanisms: release of cell-free particles and direct, cell-to-cell spread. […] Viral antigens were detected by staining of HSV-1 infected cell monolayers with FITC-conjugated polyclonal goat-anti-HSV serum (BETHYL, Montgomery, Tex., USA) diluted 1:100 in blocking buffer. […]

HSV-1 F [7] = assay: Passive immunization of NOD/SCID mice 24 h before intravaginal HSV-1 challenge; type: in vivo; conditions: 24 h prior to infection
Experimental: Mice were infected intravaginally with 1×10^6 TCID50/20 μl of the neurovirulent HSV-1 strain F. Infected mice with symptoms of weight loss, vulvitis/vaginitis or neurological diseases were killed, and their organs examined for infectious virus by titration on Vero cell monolayers as described previously. Non-infected mice were killed at day 30. Animals per group n=7.
Animals per group n=7 for PBS, n=9 all other groups.
(§2) Anesthetized female nonobese diabetic/severe combined immunodeficient (NOD-SCID) mice (NOD.CB17-Prkdc^scid/J, Charles River Laboratories, Research Models and Services, Sulzfeld, Germany), 6-8 weeks of age, were challenged intravaginally with 20 μl inoculum of 1×10^6 TCID50 HSV-1 F per mouse. Skin glue (Epiglu, Meyer-Haake Medical Innovations, Wehrheim, Germany) was applied onto the vulva to prevent discharge of the virus inoculum. […] Mice were examined daily after viral inoculation for loss of weight, vulvitis/vaginitis (redness, mucopurulent discharge and signs of inflammation) and neurological disease. Mice displaying any of theses symptoms were sacrificed immediately. […] Mice were assessed for infection by determination of virus titers from vaginal irrigations obtained on days 1, 2, 4, 6 and 8 after infection and at the time of death using the endpoint dilution assay on Vero cells. Viral loads in organs (spleen, adrenal gland, lung heart, liver, kidney, spinal cord, and brain) of sacrificed mice were determined after homogenization of organs by titration on Vero cell monolayers as described elsewhere (41). Each test and control group contained 9-10 animals with detectable HSV-1 infection.
Natural killer (NK) cells accumulating at the site of HSV-2 infection in humans (28) are the early source of interferon-γ (45), which plays an essential role for the control of HSV infection (2, 45, 62).

HSV-1 F [8] = assay: Post-exposure treatment of NOD/SCID mice with established HSV-1 infection; type: in vivo; conditions: 15 mg/kg i.v. at 24 h, 40 h and 56 h post infection
Experimental: Infected animals per group n=7.
Vaginal virus titers of antibody or control treated mice were determined from vaginal irrigations cultured on Vero cell monolayers. Error bars indicate standard deviation.
as §2

Molecule | outcome of infection ([1]; standard treatment with Acyclovir) | time by which all mice died ([1]; twice daily standard treatment) [days] | factor by which human DNA polymerase is less susceptible than viral DNA polymerase (human DNA polymerase) | affinity in comparison to mAb 2c [2] | concentration for complete neutralization ([3]; HSV-1 F, HSV-1 324 hv, HSV-1 17 syn+, HSV-1 TK−, 100 TCID50, 3 days) [nM] | neutralization of patient isolates clinically resistant to ACV, ACV and PFA, or ACV, PFA and CDV ([3]; compared with non-resistant laboratory strains) | concentration for complete neutralization [4] [nM] | competition with parental mAb 2c for binding [5] | complement dependence of HSV neutralization (HSV-1) | inhibition of cell-to-cell spread (HSV-1 F [6]) | protection against lethal encephalitis (HSV-1 F [7]; 15 mg/kg i.v.) | survival (HSV-1 F [7]; single i.v. dose of 5 mg/kg) | protection from lethal outcome of established infection (HSV-1 F [8]) | protection against lethal encephalitis ([1]; listed as mAb 2c-V1) | protection against lethal encephalitis ([1]; listed as mAb hu2c-V1)
Nc1nc(=O)c2ncn(COCCO)c2[nH]1 [Acyclovir, 2-Amino-9-(2-hydroxyethoxymethyl)-3H-purin-6-on, reference compound] | all died | ≤ 28 | 30-50 | – | – | – | – | – | – | – | – | – | – | – | –
B1 | – | – | – | affinity comparable to the murine mAb 2c | 7.8 to 15.6 | with the same efficiency as non-resistant laboratory strains or clinical isolates with unknown resistance | 31.3 to 62.5 | compete with the parental mAb 2c for binding to gB | neutralize HSV complement-independent | as efficient as the parenteral mAb 2c | fully protected against lethal encephalitis | prolongs the survival | completely protected from the lethal outcome of infection | prevented lethal encephalitis | significantly protected against lethal encephalitis
